Assays:
[1] = molecular target: Human recombinant hexaHis-tagged SIRT2 containing residues 50-356 (human) (UniProt Q8IXJ6); assay: ELISA; plate coated with 5 μg/ml SIRT2 overnight in PBS; TPPP/p25 or tubulin added in serial dilution, detected by TPPP/p25 or tubulin antibody; apparent Kd from a single binding site hyperbola; MZ242, MZ25 and SH1 up to 30 μM did not influence the binding of 125 nM TPPP/p25 significantly
[2] = molecular target: Tubulin Polymerization Promoting Protein (TPPP/p25) (human) (UniProt O94811); assay: ELISA; plate coated with 5 ug/ml TPPP/p25 overnight in PBS; tubulin added at a serial dilution; bound tubulin detected by monoclonal tubulin antibody and HRP-conjugated secondary antibody; Kd from the saturation curve by a single binding site hyperbola model; apparent
Sequence of UniProt O94811 (O94811 whole entry): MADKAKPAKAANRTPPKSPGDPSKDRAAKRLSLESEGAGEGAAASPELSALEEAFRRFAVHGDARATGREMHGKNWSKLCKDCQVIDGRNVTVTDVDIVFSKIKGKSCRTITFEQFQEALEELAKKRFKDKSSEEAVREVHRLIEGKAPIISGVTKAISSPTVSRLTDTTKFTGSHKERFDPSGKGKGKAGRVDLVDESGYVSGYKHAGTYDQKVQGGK

Sequence of UniProt Q8IXJ6 (Q8IXJ6 50-356): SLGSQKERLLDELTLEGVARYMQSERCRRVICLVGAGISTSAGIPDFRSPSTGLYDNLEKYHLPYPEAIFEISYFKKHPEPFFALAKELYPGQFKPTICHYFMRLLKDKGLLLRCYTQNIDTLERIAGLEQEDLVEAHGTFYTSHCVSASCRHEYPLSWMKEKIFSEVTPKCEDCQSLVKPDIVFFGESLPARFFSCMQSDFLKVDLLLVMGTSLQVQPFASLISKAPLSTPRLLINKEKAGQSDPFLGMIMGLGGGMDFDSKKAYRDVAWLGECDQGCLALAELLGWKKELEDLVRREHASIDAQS

Kd [1] | Kd [2] | Substance
> 2000 nM | – | Tubulin prepared from bovine brain (from UniProt Q6B856 1-445) (complex)
– | 10 nM | tubulin (from UniProt Q6B856 1-445) (complex)

Source: article PMC5719079
